The source of these data is US20110135636A1 (SYMPHOGEN A S, published 2011).

First the molecules themselves.
B1: antibody 1260 (antibody, human IgG1, kappa, V domains shown)
VH: QVQLKESGPGLVAPSQSLSITCTVSGFSLTTYGVHWVRQPPGKGLEWLGVIWAGGSTNYNSALMSRLSIKKDNSKSQVFLKMNSLQTDDTAMYYCARAYGYNFDYWGQGTTLTVSS
VL: DIQMTQTTSSLSASLGDRVTISCSASQGITNYLNWYQQKPDGTVKLLIYYSSSLHSGVPSRFSGSGSGTDYSLTISNLEPEDIATYYCQQYSEIPYTFGGGTKLELKR
notes: Chimeric IgG1 kappa
B2: antibody 1261 (antibody, human IgG1, kappa, V domains shown)
VH: EVQLVESGGGLVKPGGSLKLSCAVSGFTFSSYVMSWVRQTPEKRLEWVATITSGGRNIYYLDSVKGRFTISRDNAKNTLYLQMSSLRSEDTAMYYCARHEDYRYDGYYAMDYWGQGTSVTVSS
VL: QIVLTQSPAIMSASPGEKVTITCSASSSVSYMHWFQQKPGTSPKLWIYSTSNLASGVPARFSGSGSGTSYSLTISRMEAEDAATYYCQQRSSYPYTFGGGTKLELKR
notes: Chimeric IgG1 kappa
B3: antibody 1284 (antibody, human IgG1, kappa, V domains shown)
VH: QVQLQQPGAELVKPGASVKLSCKASGYTFTSDWMHWMKQRPGQGLEWIGEINPSNGRSSYNEKFKSKATLTVDKSSSTAYMQLSSLTSEDSAVYYCARIGGIYVETYWGQGTLVTVSS
VL: DIVLTQSPASLAVSLGQRATISCRASQSVSTSTYSYMHWYQQKSGQPPKLLIKYASNLESGVPARFSGSGSGTDFTLNIHPVEEEDTATYYCQHSWEIPWTFGGGTKLEIKR
notes: Chimeric IgG1 kappa
B4: antibody 1257 (antibody, human IgG1, kappa, V domains shown)
VH: EVQLQQSGPELVKPGASVKIPCKTSGYTFTDYNMAWVKQSHGKSLEWIGDIIPNNGGAIYNQKFKGKATLTVDKSSSTASMELRSLTSEDTAVYFCARKNIYYRYDGAGALDYWGQGTSVTVSS
VL: QIVLTQSPAIMSASPGEKVTMTCSASSSVSYIYWYQQKPGSSPRLLIYDASNLASGVPVRFSGSGSGTSYSLTISRMEAEDAATYYCQQWSSYPITFGSGTKLEIKR
notes: Chimeric IgG1 kappa
B5: antibody 1308 (antibody, human IgG1, kappa, V domains shown)
VH: EVQLQQSGAELVRPGSSVKISCKASGYAFSSYWMNWVRQRPGQGLEWIGQIYPGDGDTNYNGKFKGRATLTANKSSSTAYMQLSSLTSEDSAVYFCARRASSLYDVYPYYFDYWGQGTTLTVSS
VL: DIQMTQTTSSLSASLGDRVTISCRASQDISNYLNWYQQKPDGTVKVLIYYTSRLHSGVPSRFSGSGSGTDYSLTISNLEQEDIATYFCQQGNTLPYTFGGGTKLEIKR
notes: Chimeric IgG1 kappa

The target of one test is T1, recombinant human EGFR extracellular domain with 6xHis (human, UniProt P00533 25-645).
T1 construct: In-house produced; also called 6xHis EGFR ECD; soluble human EGFR ECD; not shown: 6xHis tag
Kind of test: SPR (BIAcore 2000); IgG captured on anti-human Fc, soluble monovalent EGFR ECD injected. On the procedure:
Kinetic analysis of the full length IgG antibodies of the invention was performed on a BIAcore 2000, employing an assay as described in (Canziani, Klakamp, et al. 2004, Anal. Biochem, 325:301-307) allowing measurement of monovalent affinities of whole IgG molecules against soluble antigen. […] The chip surface was regenerated in between cycles by stripping the captured antibody/antigen complexes with a 10 second injection of 100 mM H₃PO₄. […] The association rate constant (ka) and dissociation constant (kd) were evaluated globally from the generated sensograms with the BIA evaluation software 4.1 provided by the manufacturer.
For orientation: In SPR one partner is held on a chip, and binding of the other changes the refractive index at the surface.
For B1, the equilibrium dissociation constant (Kd) (commonly a measure of binding affinity in units of concentration) worked out at 4.2 nM; the koff (in general, a measure of how fast the partners let go of each other) came out at 0.00016 s⁻¹; the kon – broadly, a measure of how fast the partners come together – was 37000 M⁻¹ s⁻¹; the “t1/2” value is 1.23 h.

In the case of B2, the Kd stood at 18.6 nM, the koff stood at 0.0032 s⁻¹, the association rate constant (kon) was found to be 170000 M⁻¹ s⁻¹ and the “t1/2” value stood at 0.06 h.

On to B3, for which the Kd amounted to 4.6 nM, the off-rate (koff) came to 0.00015 s⁻¹, the kon is 32000 M⁻¹ s⁻¹ and the “t1/2” value is 1.3 h.

The next test concerns the target T2, wild type full length EGFR purified from A431 cells (human, UniProt P00533 25-1210).
T2 construct: mature; Bought; coated on ELISA wells; also called full length EGFR receptor antigen; Sigma E3641
Kind of test: competition ELISA, competitor Ab-3. Also noted: concentration or dose not given beside the values. On the procedure:
(§1) The ELISA was adapted from the descriptions published in Ditzel et al, 1995, The Journal of Immunology, Vol 154, Issue 2 893-906.
(§2) An epitope blocking ELISA was performed by diluting full length EGFR receptor antigen to 0.5 μg/ml in PBS; and coating 50 μl/ELISA well overnight at 4° C. […] Finally wells were washed four times with PBS-T and plates were developed by adding 50 μl/well TMB and read at 620 nm every 5-15-30 min. The degree of inhibition was calculated from the formula: % inhibition=(1−(OD competition/OD no competition (PBS)))×100.
(In an ELISA, binding on a coated surface is turned into a signal by an enzyme label.)
Consider B1, for which the % inhibition – broadly, the relative decrease from the control value, in per cent – came to 12%.

Turning to B4, the “% inhibition” value was found to be 77%.

Consider B2, for which the “% inhibition” value came out at 30%.

As to B3, the “% inhibition” value worked out at 9%.

Take B5: the “% inhibition” value was 19%.

The target in another test is T3, Cynomolgus EGFR extracellular domain (Cynomolgus monkey (Macaca fascicularis), UniProt P55245 25-645 (rhesus entry)).
T3 construct: Cloned without signal peptide; also called Cynomolgus rEGFR ECD; Cynomolgus EGFR ECD
Kind of test: ELISA on cynomolgus EGFR ECD (Example 10). An outline of the steps:
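Wells coated overnight at 4 °C with 1 μg/ml EGFR protein, then given serial four-fold antibody dilutions from 1 μg/ml for 1 h at room temperature. Binding detected with streptavidin-HRP and TMB, read at OD 450 nm.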
Take B1: the binding result is on record as “binds”.

For the molecule B4, the binding result is given as “binds”.

For the molecule B2, the binding result is recorded as “binds”.

As for B3, the binding result is “binds”.

Regarding B5, the binding result is “binds”.

The next test concerns the target T1, recombinant human EGFR extracellular …. Kind of test: SPR competition, competitor 1308. On the procedure:
SPR analysis was performed on a Biacore 3000 machine containing four flow cells. A CM5 Biacore chip was conjugated with 10,000 Resonance units (Ru) polyclonal anti-His antibody to flow cells 1-4 according to the manufacturer's instructions. […] Immediately after antigen injection the maximal binding of the Anti-EGFR mAb without competition was established in each flow cell during a reference run. Briefly 5 μl antibody at a concentration of 40 μg/ml was injected over all flow cells with captured EGFR followed by stripping of the antibody/antigen complex with a low pH acid wash (10 sec. contact time with 10 mM Glycine-HCl, pH2). After the determination of Anti-EGFR antibody maximal binding to each flow cell, a competition run was performed during the same Biacore cycle. Flow cells were first saturated with EGFR ECD antigen followed by injection of different reference antibodies or Anti-EGFR antibodies into separate flow cells using the same antigen saturating conditions as outlined above. This step was immediately followed by a second injection of Anti-EGFR antibody over the flow cell saturated with EGFR antigen and competition antibody to minimize the dissociation of either antigen or blocking antibody. Then the antibody/antigen complexes were stripped off with a low pH acid wash (10 sec. contact time with 10 mM Glycine-HCl, pH 2) and the whole cycle beginning with the reference run was repeated with a new Anti-EGFR antibody. The degree of inhibition of tested Anti-EGFR antibodies were determined by comparing the Ru max value of the individual Anti-EGFR antibody before and after competition by introduction of report points recorded two seconds before and after injection of each sample.
Take B4: the “% inhibition” value was determined as 27%.

With B2, the “% inhibition” value was -10%.

For B3, the “% inhibition” value is 68%.

On to B5, for which the “% inhibition” value came out at 75%.

Another test has the same target. Kind of test: SPR competition, competitor 1449. In a few lines:
(§3)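 Capture surface: polyclonal anti-His antibody (10,000 Ru) on CM5, Biacore 3000, four flow cells. EGFR ECD captured; test mAb 40 μg/ml injected alone (reference), then after competitor saturation. Regeneration with 10 mM Glycine-HCl pH 2, 10 s.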
Turning to B1, the “% inhibition” value came to 29%.

Take B4: the “% inhibition” value is 15%.

With B2, the “% inhibition” value is -20%.

Consider B3, for which the “% inhibition” value is -1%.

A further test deals with T2, wild type full length EGFR purified …. Kind of test: competition ELISA, competitor Ab-2. On the set-up: concentration or dose not given beside the values. The method, then: as §1, §2
B1: the “% inhibition” value stood at 8%.

As to B4, the “% inhibition” value turned out to be 37%.

As for B2, the “% inhibition” value stood at 6%.

In the case of B3, the “% inhibition” value worked out at 26%.

Turning to B5, the “% inhibition” value stood at 11%.

In the next test the target is T1, recombinant human EGFR extracellular …. Kind of test: SPR competition, competitor 1042. In a few lines:
as §3
B1: the “% inhibition” value amounted to 31%.

Take B4: the “% inhibition” value stood at 16%.

With B2, the “% inhibition” value is -18%.

On to B3, for which the “% inhibition” value is -1%.

Another test concerns the target T2, wild type full length EGFR purified …. Kind of test: competition ELISA, competitor ICR10. On the set-up: concentration or dose not given beside the values. The method, then: as §1, §2
For B1, the “% inhibition” value was determined as 90%.

B4: the “% inhibition” value worked out at 78%.

As for B2, the “% inhibition” value was determined as 57%.

On to B3, for which the “% inhibition” value was determined as 88%.

Regarding B5, the “% inhibition” value was determined as 71%.

For a further test the target is unchanged. Kind of test: competition ELISA, competitor Ab-11. Also noted: concentration or dose not given beside the values. The method, then: as §1, §2
In the case of B1, the “% inhibition” value was found to be 92%.

Take B4: the “% inhibition” value turned out to be 92%.

As to B2, the “% inhibition” value worked out at 88%.

With B3, the “% inhibition” value came to 52%.

As to B5, the “% inhibition” value was 91%.

The target is the same in the next test. Kind of test: competition ELISA, competitor Ab-5. On the set-up: concentration or dose not given beside the values. The method, then:
as §1, §2
As to B1, the “% inhibition” value was determined as 17%.

Regarding B4, the “% inhibition” value was determined as 25%.

Consider B2, for which the “% inhibition” value turned out to be 6%.

Regarding B3, the “% inhibition” value turned out to be 31%.

For the molecule B5, the “% inhibition” value is 0%.

A further test shares this target. Kind of test: competition ELISA, competitor Ab-1. On the set-up: concentration or dose not given beside the values. The method, then: as §1, §2
Take B1: the “% inhibition” value came out at 12%.

Consider B4, for which the “% inhibition” value is 6%.

With B2, the “% inhibition” value was found to be 3%.

As for B3, the “% inhibition” value came to 12%.

B5: the “% inhibition” value is 4%.

The target in another test is T4, EGFRvIII (deletion mutant EGFR) (human, UniProt P00533 25-645, limits assumed).
T4 construct: also called deltaEGFR; rhEGFRvIII
Kind of test: EGFRvIII ELISA (Example 1).
As for B1, the binding result is “no binding”.

With B4, the binding result is recorded as “no binding”.

On to B2, for which the binding result is on record as “no binding”.

Turning to B3, the binding result is given as “no binding”.

Take B5: the binding result is “no binding”.
